Experimental data taken from patent publication EP2164866B1.

Target: epidermal growth factor receptor (EGFR) on EGFR positive U87 cells (UniProt P00533)
Assay: FACS saturation binding to EGFR receptor

Row | Half saturation [nM] | Bmax (RFU) | Substance
1 | 1.8 | – | Anti-EGFR-Angiopep-2 conjugate (EGFR antibody monoclonal 528 cross-linked to Angiopep-2 with SATA)
2 | 1.7 | 23.6 | EGFR antibody (monoclonal 528 available from ATCC)
